Article PMC2556791 (The Journal of Experimental Medicine, 2008)
Each block holds one molecule with its values, some of them ahead of it.

What was measured:
[1] = target: mCMKLR1-HA on L1.2 transfectants (mouse) (UniProt P97468); assay: radioligand binding
[2] = target: huCCRL2-HA on L1.2 transfectants (human); assay: radioligand binding
[3] = target: mCCRL2 on freshly isolated mouse peritoneal mast cells (mouse (endogenous in peritoneal mast cells)) (UniProt O35457); assay: flow cytometry on cells
[4] = target: T1, mCMKLR1-HA on L1.2 transfectants (mouse, UniProt P97468 1-371); assay: radioligand binding
T1 sequence (looked up): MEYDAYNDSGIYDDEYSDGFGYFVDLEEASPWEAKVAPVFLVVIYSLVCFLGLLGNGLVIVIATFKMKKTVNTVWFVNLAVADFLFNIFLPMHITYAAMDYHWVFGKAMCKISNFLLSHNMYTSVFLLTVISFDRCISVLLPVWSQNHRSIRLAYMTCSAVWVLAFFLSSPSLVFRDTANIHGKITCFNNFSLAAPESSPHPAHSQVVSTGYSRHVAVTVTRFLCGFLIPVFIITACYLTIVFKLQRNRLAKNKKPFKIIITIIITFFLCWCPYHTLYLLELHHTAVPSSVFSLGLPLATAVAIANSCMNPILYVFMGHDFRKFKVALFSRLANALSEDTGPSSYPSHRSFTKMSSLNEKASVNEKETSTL

[5] = target: T2, mCCRL2-HA on L1.2 transfectants (mouse, UniProt O35457 1-360); assay: radioligand binding
T2 sequence (looked up): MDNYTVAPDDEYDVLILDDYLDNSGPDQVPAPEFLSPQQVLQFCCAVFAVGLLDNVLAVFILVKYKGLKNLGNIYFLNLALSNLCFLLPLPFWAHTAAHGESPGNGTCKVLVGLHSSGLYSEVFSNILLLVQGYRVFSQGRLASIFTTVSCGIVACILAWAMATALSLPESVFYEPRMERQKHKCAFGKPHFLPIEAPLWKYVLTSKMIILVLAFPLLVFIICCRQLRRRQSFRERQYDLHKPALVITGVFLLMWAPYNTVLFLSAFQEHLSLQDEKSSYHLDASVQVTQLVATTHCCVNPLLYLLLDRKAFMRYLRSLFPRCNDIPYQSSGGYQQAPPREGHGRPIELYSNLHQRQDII

[6] = target: huCCRL2-HA on L1.2 transfectants (human); assay: flow cytometry on cells
[7] = target: T2, mCCRL2-HA on L1.2 transfectants; assay: flow cytometry on cells

Molecule: chemerin (unlabeled; form not specified) (from UniProt Q99969 21-157) (ligand)
EC50 [1]: 0.0031 µM
EC50 [2]: 0.0002 µM
EC50 [3]: 0.021 µM

Molecule: C-terminal His8-tagged serum form human chemerin (NH2-ADPELTE……-COOH) (from UniProt Q99969 21-155) (ligand)
EC50 [1]: 0.0263 µM

B3: untagged serum form human chemerin (NH2-ADPELTE…FAPH-COOH) (ligand)
chain: ADPELTEAQRRGLQVALEEFHKHPPVQWAFQETSVESAVDTPFPAGIFVRLEFKLQQTSCRKRDWKKPECKVRPNGRKRKCLACIKLGSEDKVLGRLVHCPIETQVLREAEEHQETQCLRVQRAGEDPHSFYFPGQFAPH
EC50 [6]: 0.007 µM
EC50 [7]: 0.045 µM

The remaining lines, values ahead:

EC50 [4]: 0.0262 µM
B1: bioactive 9-mer carboxyl-terminal chemerin peptide (residues 149–157, YFPGQFAFS) (peptide)
peptide: YFPGQFAFS

Kd [5]: 0.0016 µM
B2: 125I-chemerin (residues 21–148) (ligand, human, UniProt Q99969 21-148, looked up)
chain: ELTEAQRRGLQVALEEFHKHPPVQWAFQETSVESAVDTPFPAGIFVRLEFKLQQTSCRKRDWKKPECKVRPNGRKRKCLACIKLGSEDKVLGRLVHCPIETQVLREAEEHQETQCLRVQRAGEDPHSF
modifications: 125I (radioiodinated; specific activity 97 Ci/g)
